Consider 19 molecules from patent publication US20250163166A1 (REGENECORE BIOTECH, published 2025).

Numbering of substitutions follows the chain as printed.

The term Kd denotes the constant that tells how readily two partners part at equilibrium.

T1: human recombinant CD123 protein (human, UniProt P26951 19-300)
T1 construct: range 19-300
T1 sequence (looked up): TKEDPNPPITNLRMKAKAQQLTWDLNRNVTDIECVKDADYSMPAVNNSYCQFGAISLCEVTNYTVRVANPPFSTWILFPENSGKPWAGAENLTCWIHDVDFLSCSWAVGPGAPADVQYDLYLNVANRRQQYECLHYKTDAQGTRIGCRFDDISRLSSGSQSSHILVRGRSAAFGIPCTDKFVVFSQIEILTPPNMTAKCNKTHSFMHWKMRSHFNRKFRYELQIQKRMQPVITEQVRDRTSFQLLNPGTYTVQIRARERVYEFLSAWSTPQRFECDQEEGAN

B1: bispecific antibody BM#1 against CD33 and CD123 (bispecific antibody, human IgG1)
chain 1: QVQLVESGGGSVQAGGSLRLSCAASGYTYSSTCIGWFRQAPGKDREGVAFAYTGGGVTYADSVKGRFTISQDNAKNTVHLIMNSLKPEDTAMYYCAAKTRGGCWAAAAFYNYWGQGTQVTVSSEPKSCDKTHTCPPCPAPELLGGPSVFLFPPKPKDTLMISRTPEVTCVVVDVSHEDPEVKFNWYVDGVEVHNAKTKPREEQYNSTYRVVSVLTVLHQDWLNGKEYKCKVSNKALPAPIEKTISKAKGQPREPQVYTLPPSRDELTKNQVSLWCLVKGFYPSDIAVEWESNGQPENNYKTTPPVLVSDGSFTLYSKLTVDKSRWQQGNVFSCSVMHEALHNHYTQKSLSLSPGK
chain 2: not shown
notes: VHH-Fc heterodimer
B2: bispecific antibody BM#30 against CD33 and CD123 (bispecific antibody, human IgG1)
chain 1: B1 chain 1 with Q255R, E265K, W274T, V307D, T313F, Y315A
chain 2: QVQLVESGGGSVQAGGSLKLSCAASRFIFSRCGMGWFRQAPGKERELVSTISGDGTTFYADSVKGRFTISQHNAATTLYLQMNSLKLEDTAVYYCAADCYNRKYWGQGTQVTVSSEPKSCDKTHTCPPCPAPELLGGPSVFLFPPKPKDTLMISRTPEVTCVVVDVSHEDPEVKFNWYVDGVEVHNAKTKPREEQYNSTYRVVSVLTVLHQDWLNGKEYKCKVSNKALPAPIEKTISKAKGQPREPQVYTLPPSRDELTDNQVSLTCLVEGFYPSDIAVEWESNGQPENNYKTTPPVLDSDGSFFLYSVLTVDKSRWQQGNVFSCSVMHEALHNHYTQKSLSLSPGK
notes: VHH-Fc heterodimer; also called BM-RT2831-#30
B3: bispecific antibody BM#21 against CD33 and CD123 (bispecific antibody, human IgG1)
chain 1: B1 chain 1 with D264K, W274T
chain 2: not shown
notes: VHH-Fc heterodimer; also called BM-RT2831-#21
B4: bispecific antibody BM#3 against CD33 and CD123 (bispecific antibody, human IgG1)
chain 1: B1 chain 1 with W274V
chain 2: not shown
notes: VHH-Fc heterodimer; also called BM-RT2831-#3
B5: bispecific antibody BM#26 against CD33 and CD123 (bispecific antibody, human IgG1)
chain 1: B1 chain 1 with D264K, E265K, W274T
chain 2: B2 chain 2 with D260K, V309W, K339E
notes: VHH-Fc heterodimer
B6: bispecific antibody BM#22 against CD33 and CD123 (bispecific antibody, human IgG1)
chain 1: B1 chain 1 with E265K, W274T
chain 2: not shown
notes: VHH-Fc heterodimer; also called BM-RT2831-#22
B7: bispecific antibody BM#23 against CD33 and CD123 (bispecific antibody, human IgG1)
chain 1: B1 chain 1 with E265D, W274T
chain 2: not shown
notes: VHH-Fc heterodimer; also called BM-RT2831-#23
B8: bispecific antibody BM#2 against CD33 and CD123 (bispecific antibody, human IgG1)
chain 1: B1 chain 1 with E265K, V307K, T313F
chain 2: not shown
notes: VHH-Fc heterodimer
B9: bispecific antibody BM#27 against CD33 and CD123 (bispecific antibody, human IgG1)
chain 1: B1 chain 1 with D264K, E265D, W274T
chain 2: B2 chain 2 with D260K, E270Y, V309W, K339E
notes: VHH-Fc heterodimer; also called BM-RT2831-#27
B10: bispecific antibody BM#12 against CD33 and CD123 (bispecific antibody, human IgG1)
chain 1: B1 chain 1 with K278E, V307D, T313F, K317D
chain 2: not shown
notes: VHH-Fc heterodimer
B11: bispecific antibody BM#24 against CD33 and CD123 (bispecific antibody, human IgG1)
chain 1: B1 chain 1 with D264K, E265D, W274T, V307D, T313F, Y315A
chain 2: B2 chain 2 with D260K, E270Y, K339E
notes: VHH-Fc heterodimer; also called BM-RT2831-#24
B12: bispecific antibody BM#14 against CD33 and CD123 (bispecific antibody, human IgG1)
chain 1: B1 chain 1 with W274V, K278E, V307D, T313F, K317D
chain 2: B2 chain 2 with E257K, D260K, E270K, D299K, Y307A, V309K
notes: VHH-Fc heterodimer
B13: bispecific antibody BM#13 against CD33 and CD123 (bispecific antibody, human IgG1)
chain 1: not shown
chain 2: B2 chain 2 with D260K, E270K, D299V, F305T, Y307A, V309K
notes: VHH-Fc heterodimer
B14: bispecific antibody BM#29 against CD33 and CD123 (bispecific antibody, human IgG1)
chain 1: B1 chain 1 with Q255R, D264K, W274T, V307D, T313F, Y315A
chain 2: B2 chain 2 with E270K, K339E
notes: VHH-Fc heterodimer; also called BM-RT2831-#29
B15: bispecific antibody BM#36 against CD33 and CD123 (bispecific antibody, human IgG1)
chain 1: not shown
chain 2: B2 chain 2 with D260K, E270K, T294S, V297A, F305A, Y307V, V309K
notes: VHH-Fc heterodimer
B16: bispecific antibody BM#32 against CD33 and CD123 (bispecific antibody, human IgG1)
chain 1: B1 chain 1 with Q255R, E265D, W274T, V307D, T313F, Y315A
chain 2: B2 chain 2 with E270Y
notes: VHH-Fc heterodimer; also called BM-RT2831-#32
B17: bispecific antibody BM#4 against CD33 and CD123 (bispecific antibody, human IgG1)
chain 1: B1 chain 1 with E265K, W274V, V307K, T313F
chain 2: B2 chain 2 with D260K, Y307A, V309D
notes: VHH-Fc heterodimer; also called BM-RT2831-#4
B18: bispecific antibody BM#28 against CD33 and CD123 (bispecific antibody, human IgG1)
chain 1: B1 chain 1 with D264K, E265D, W274T, V307K, T313F
chain 2: B2 chain 2 with D260K, E270Y, V309D, K339E
notes: VHH-Fc heterodimer
B19: anti-CD123 single domain antibody (VHH)
VHH: QVQLVESGGGSVQAGGSLKLSCAASRFIFSRCGMGWFRQAPGKERELVSTISGDGTTFYADSVKGRFTISQHNAATTLYLQMNSLKLEDTAVYYCAADCYNRKYWGQGTQVTVSS
notes: Tested as crude extract from the pMECS clone and detected through an HA tag; also called second VHH

T2 sequence (P08637 17-208 limits assumed): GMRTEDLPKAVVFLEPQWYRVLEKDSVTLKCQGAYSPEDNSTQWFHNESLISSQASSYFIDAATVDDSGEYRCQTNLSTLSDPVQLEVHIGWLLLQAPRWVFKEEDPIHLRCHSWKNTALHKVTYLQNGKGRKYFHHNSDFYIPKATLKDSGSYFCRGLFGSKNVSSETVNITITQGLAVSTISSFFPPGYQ

The first assay concerns the target T2, human FCγRIIIa receptor (human, UniProt P08637 17-208, limits assumed).
T2 construct: Used in solution as the 'antigen' in BLI; also called FcγIIIa receptor
Briefly: BLI; Ratio against the hIgG (hIgG1) control, fits KD(hIgG)/KD(sample). As for the experimental part: (§1) (3) Preparation of antigen working solution: 200 nM antigen (FCγRIIIa) in SD buffer was first prepared at and then serially diluted in 2 folds to prepare a total of 5 concentration gradients, in addition to which a zero concentration was prepared.
(§2) (11) Data analysis: related constants, such as KD, Kon, Koff, X2, Full R2 and the like were calculated in Data Analysis software.
(§3) In the examples of the present application, the modified bispecific antibody was subjected to BLI test to determine the affinity of the modified bispecific antibody to human FCγRIIIa.
In general terms: Biolayer interferometry detects binding as a change in optical thickness at a sensor tip.
Turning to B1, the Ratio was 1.29.
Still for that read-out and setting: the figure for B2 is 1.27; for B3 it is 1.04.
Consider B4, for which the Ratio amounted to 1.
Same read-out and setting: the figure for B5 is 1.15.
As to B6, the Ratio came to 1.03.
Consider B7, for which the Ratio is 1.08.
B8: the Ratio was found to be 1.12.
In the case of B9, the Ratio is 0.91.
B10: the Ratio was determined as 1.65.
In the case of B11, the Ratio amounted to 1.06.
As for B12, the Ratio stood at 1.61.
Regarding B13, the Ratio amounted to 1.42.
Turning to B14, the Ratio was 1.2.
For the molecule B15, the Ratio was found to be 1.38.
On the same count and under the same terms, the figure for B16 is 1.17.
As for B17, the Ratio worked out at 1.19.
On the same count and under the same terms, the figure for B18 is 1.45.

A further assay deals with T2, human FCγRIIIa receptor. Briefly: BLI (Octet 96), antibody loaded on sensor, FCγRIIIa 200 nM and 2-fold dilutions in solution. Here is the method:
as §1, §2, §3
In the case of B1, the Kd amounted to 68.9 nM.
Take B2: the affinity, expressed as Kd, was 69.6 nM.
The molecule B3 returned a Kd of 85.4 nM.
Molecule B4 displayed a Kd of 88.2 nM.
As for B5, binding was characterised by a dissociation constant (Kd) of 76.9 nM.
As for B6, the affinity, expressed as Kd, was 86.3 nM.
The molecule B7 displayed a Kd of 82.1 nM. This Kd and that of the molecule before are within 1.5-fold of each other.
As to B8, the Kd amounted to 79.1 nM.
With B9, the equilibrium dissociation constant (Kd) was 96.9 nM.
B10: the equilibrium dissociation constant (Kd) came out at 53.8 nM. Compared with the last molecule, the Kd is about 1.8-fold lower.
The same measure, in the same setting: the figure for B11 is 83.3 nM; for B12 it is 55.2 nM; for B13 it is 62.5 nM.
In turn, B14 yielded a Kd of 73.9 nM.
On to B15, for which the affinity, expressed as Kd, was 64.2 nM.
In the case of B16, the affinity, expressed as Kd, was 76 nM.
Molecule B17 gave a dissociation constant (Kd) of 74.2 nM. This Kd and that of the molecule before are within 1.5-fold of each other.
Consider B18, for which the Kd was found to be 61.3 nM.

A further assay addresses T1, human recombinant CD123 protein. Briefly: ELISA of crude antibody extract on coated antigen, anti-HA detection; positive clone if OD450 is more than 5 times the control. As for the experimental part: 2. CD33 protein or CD123 protein was diluted into 100 mM NaHCO₃ at pH 8.3. An ELISA plate was coated with 100 μg CD33 protein at 4° C. overnight. The next day, […] BSA-Biotin protein was added to the ELISA plate.
3. 100 μL of crude antibody extract obtained in the above step was transferred to the ELISA plate into which the antigen was added, and incubated at room temperature for 1 h.
Regarding B19, the binding result is given as “binds”.
